Where a chain is given by its changes, count along the chain named. Names may count otherwise. Read-outs that look alike come from different tables or passages of the source.
What was measured:
[1] = DSF thermostability of Ric8A constructs and Ric8A1–492 mutants (protein alone); type: physicochemical, bovine; conditions: DSF; for mean Tm / Tm (C ): protein alone, source data; for mean Tm: mean of replicates
Experimental: Stabilities of Ric8A constructs with and without peptide ligands were assessed using differential scanning fluorimetry (DSF), in which an increase in fluorescence of the Sypro Orange dye is measured. Ric8A1–492, Ric8A1–452 and Ric8A1–426 in 20 mM Tris-HCl (pH 7.5) buffer containing 150 mM KCl, 5% glycerol, and 1 mM TCEP with and without peptide were used at a final concentration of 0.5 mg/ml and were supplemented with a 1000-fold dilution of Sypro Orange dye (Invitrogen). Temperature was increased at 1 °C/minute and fluorescence signals were recorded using real-time PCR (C1000 Touch thermal cycler, Bio Rad), with the cycler set to FRET mode and the excitation wavelength set at 450–490 nm and the emission wavelength at 560–580 nm.

Gαt333–350 = experiment: BLI: Ric8A1–492 and its mutants binding to biotinylated Gαt333–350; conditions: for Kd: BLI steady state, source data
Experimental: (§1) An Octet RED96 system and streptavidin (SA)-coated biosensors (FortéBio, Menlo Park, CA) were used to measure association and dissociation kinetics for Gα peptides or the full-length Avi-tagged Gαt in relation to Ric8A1–492, Ric8A1–452, and Ric8A1–426. To obtain the Avi-tagged Gαt, Gαt was cloned into modified pET21a vector with the N-terminal His6-tag followed by the Avi tag and TEV cleavage site[59]. The Avi-tagged I340Q/N343H mutant of Gαt was prepared by QuikChange protocol. BL21(DE3) cells for expression of the Avi-tagged Gαt were grown in 2TY media supplemented with biotin (10 mg/liter), induced at OD600 of 0.6 with 50 µM IPTG and further grown overnight at 16 °C. Binding studies were performed in 20 mM Tris, 150 mM KCl, 5% glycerol, 1 mM TCEP, 0.5 mg/ml BSA, pH 8.0. All steps were performed at 26 °C, with biosensors stirred into 0.2 ml of sample in each well at 1000 rpm, and at a data acquisition rate of 5.0 Hz. N-terminally biotinylated Gαt333–350, Gαs363–380, C1 peptide and C2 peptide were loaded onto SA sensors at a concentration of 0.05, 0.05, 0.005, and 0.01 mg/ml for 40–90 seconds. Data for association and dissociation phases of the assay were collected as shown in Fig. 1b and Supplementary Figs. 8, 11, 12, and 14. To correct for baseline drift and non-specific binding, reference sensors lacking bound Gα peptide were used in the BLI assays with Ric8A proteins at the highest concentrations. Kinetic data fitting was performed using FortéBio Data Analysis software 10.0. For each concentration of Ric8A1–492, dissociation rate constant (kd) values were calculated from the corresponding dissociation phases of the curves. These kd values were used to calculate the association rate constant (ka) values from the association phases for each concentration according to the equation1 ka=kobserved-kd∕Ric8A1-492 The average ka and kd were calculated as means of the individual ka and kd values for all curves. Equilibrium dissociation constant KD was calculated as mean kd/mean ka. Steady-state data fitting was performed using the GraphPad Prism 7 software with the equation for one site specific binding.

Gαt [2] = experiment: BLI: Ric8A1–492 and its mutants binding to full-length Avi-tagged Gαt; conditions: BLI steady state, source data
Experimental: as §1

Gαi = experiment: GTPγS binding to Gαi (GDP/GTPγS exchange, GEF activity of Ric8A constructs); type: biochemical; conditions: for Rate of GDP/GTPγS exchange reaction on Gαi: same conditions
Experimental: The rates of GTPγS binding to Gαi in the absence or presence of Ric8A1–492 (Ric8A1–452) were measured by following the increase in fluorescence of Gαi tryptophan. Gαi (1 µM) was mixed with GDP (1 µM) in a fluorescence cuvette, in 20 mM Tris-HCl (pH 8.0) buffer containing 150 mM NaCl, 5% glycerol, 1 mM TCEP and 10 mM MgCl2, and incubated for 2 min. The binding reaction was initiated by addition of Ric8A1–492 or Ric8A1–452 (1 µM each) and/or and GTPγs (10 µM). Fluorescence at 340 nm was monitored with the excitation set at 295 nm. Data were fit to an equation for one phase association using the GraphPad Prism 7.05 software.

Gαt [3] = experiment: SEC co-migration of Ric8A1–492 R75M mutant with full-length Gαt; type: binding
Experimental: Ric8A1–492/miniGαi complex was prepared by mixing Ric8A with miniGαi at a 1:1.5 molar ratio. The complex was purified by SEC using a HiLoad 16/600 Superdex 200 pg column equilibrated with 20 mM Tris-HCl (pH 8.0) buffer containing 150 mM KCl, 5% glycerol, and 1 mM TCEP. This procedure removed excess miniGαi, ensuring 1:1 stoichiometry of the complex. Ric8A1–492/Gαt complexes were purified by mixing Ric8A1–492 with Gαt (1:1.5 molar ratio), followed by SEC using Superdex 200 10/300 GL column (GE healthcare) to remove excess Gαt. […]
with Gαt. (A) Ric8A1-492 was mixed with Gαt and loaded onto a MW-calibrated Superdex 200 10/300 column. SEC profile - black curve. Blue curve and a gel in the inset with a blue outline represent SEC profile of Ric8A1-492 alone. Red curve and a gel in the inset with a red outline represent SEC profile of Gαt alone. (B) Peak fractions in A analyzed by SDS-PAGE. Peak 1 containing the Ric8A1-492/Gαt complex is not fully resolved from peak 2 corresponding to Ric8A1-492 alone. (C) The R75M mutant of Ric8A1-492 was mixed with Gαt and loaded onto a MW-calibrated Superdex 200 16/600 column. SEC profile - black curve. Blue line and a gel in inset represent SEC profile of R75M alone. Red curve – SEC profile of Gαt alone. (D) Peak fractions in C analyzed by SDS-PAGE. […]

B1: Ric8A1–492: bovine Ric8A construct truncated at the C-terminus (residues 1–492) (protein)
chain: MEPRAVADALETGEEDVVMEALRAYNRENSQSFTFDDAQQEDRKRLAKLLVSVLEQGLPPSRRVIWLQSIRILSRDRSCLDSFTSRRSLQALACYAGISASQGSVPEPLNMDVVLESLKCLCNLVLSSPVAQALAAEAGLVVRLAERVGLCRQSSFPHDVQFFDLRLLFLLTALRTDVRQQLFQELQGVRLLTRALELTLGMTEGERHPELLPPQETERAMEILKVLFNITFDSIKREVDEEDAALYRHLGTLLRHCVMLAAAGDRTEELHGHAVNLLGNLPVKCLDVLLTLEPHEGSLEFLGVNMDVIRVLLSFMEKRLHQTHRLKESVAPVLSVLTECARMHRPARKFLKAQVLPPLRDVRTRPEVGELLRNKLVRLMTHLDTDVKRVAAEFLFVLCSESVPRFIKYTGYGNAAGLLAARGLMAGGRPEGQYSEDEDTDTDEYKEAKASINPVTGRVEEKPPNPMEGMTEEQKEHEAMKLVNMFDKLSRH
modifications: left off: His6, N-terminal, state not stated
Tm ([1]; Sypro Orange, protein alone 0.5 mg/ml, 20 mM Tris-HCl pH 7.5, 150 mM KCl, 5% glycerol, 1 mM TCEP, 1 °C/minute, mean ± SD (n = 3)): 46.8 ± 0.2 °C | mean Tm [1]: 46.8 C | Tm (C ) ([1]; replicate 1): 46.9 C | Tm (C ) ([1]; replicate 2): 46.96 C | Tm (C ) ([1]; replicate 3): 46.7 C | Kd (Gαt333–350; experiment 1, read-out: KD (uM), Gαt333-350): 0.27 µM | Kd (Gαt333–350; experiment 2, read-out: KD (uM), Gαt333-350): 0.33 µM | Kd (Gαt333–350; experiment 3, read-out: KD (uM), Gαt333-350): 0.33 µM | Kd (Gαt333–350; experiment 4, read-out: KD (uM), Gαt333-350): 0.19 µM | Kd (Gαt333–350; mean of replicates, read-out: Mean KD, Gαt333-350): 0.28 µM | Kd (Gαt333–350; representative experiment, read-out: KD, steady-state curve of Figure 1c): 0.27 µM | Kd (Gαt [2]; experiment 1, read-out: KD (nM), Gαt): 22.6 nM | Kd (Gαt [2]; experiment 2, read-out: KD (nM), Gαt): 27 nM | Kd (Gαt [2]; experiment 3, read-out: KD (nM), Gαt): 23.1 nM | Kd (Gαt [2]; mean of replicates, read-out: mean KD, Gαt): 24.2 nM | Rate of GDP/GTPγS exchange reaction on Gαi, mean (Gαi; Gαi 1 µM, GDP 1 µM, Ric8A construct 1 µM, GTPγS 10 µM, 20 mM Tris-HCl pH 8.0, 150 mM NaCl, 5% glycerol, 1 mM TCEP, 10 mM MgCl2, tryptophan fluorescence ex 295 nm, em 340 nm, one phase association fit, mean): 0.3229 | Rate of GDP/GTPγS exchange reaction on Gαi (Gαi; replicate 1): 0.2658 | Rate of GDP/GTPγS exchange reaction on Gαi (Gαi; replicate 2): 0.38

B2: R75M: R75M mutant of Ric8A1–492 (protein, UniProt Q5E9J8 1-492, looked up, variant R75M)
chain: B1 chain with R75M
modifications: residues 1-492
mean Tm [1]: 45.9 C | Tm (C ) ([1]; replicate 1): 45.86 C | Tm (C ) ([1]; replicate 2): 45.81 C | Tm (C ) ([1]; replicate 3): 45.88 C | Tm (C ) ([1]; replicate 4): 45.96 C | binding to Gαt333–350 (in words) (Gαt333–350; BLI): ablated the binding | interaction with full-length Gαt (in words) (Gαt [3]): disruption of the interaction
